Assay results from patent publication US20120003296A1, “NEW METHODS OF TREATING DRY EYE SYNDROME” (priority 2010, published 2012).

What was measured:
dry eye [1] = conditions: ophthalmic drops, compared to artificial tears or testosterone; cited from earlier work
[2] = relative to testosterone; cited from earlier work
[3] = in vivo; cited from earlier work
dry eye [4] = conditions: 2% suspension, versus baseline; cited from earlier work
[5] = system: MCF-7 human breast cancer cells; conditions: in vitro, MCF-7 cells, methotrexate in presence of insulin; cited from earlier work
musculoskeletal pain = assay: Prolotherapy injectate with insulin; type: in vivo; conditions: with insulin versus prolotherapy agent alone
Source text: The inventors have used glucose along with insulin and lidocaine in our prolotherapy injectate for various musculoskeletal pain, including arthritis, back pain, neck pain, fibromyalgia, sports injuries, unresolved whiplash injuries, carpal tunnel syndrome, chronic tendonitis, partially torn tendons, ligaments and cartilage, degenerated or herniated discs, TMJ pain and sciatica. It is important to note the principle of prolotherapy is to induce fibroblasts to multiply and lay more ligaments (collagen); make the ligaments and tendons stronger inducing sterile inflammation at the site. Insulin can enhance the multiplication of fibroblasts by these prolotherapy and other sterile inflammatory therapeutic agents to make ligaments stronger. […] Insulin increased the fibroblast mitosis and thus increased production of collage to strengthen the ligaments of the painful joint giving long lasting fast pain relief with stronger functional joints. When insulin is therapeutically effective ever in taking away the pain by various prolotherapy therapeutic agents, one can see how effective it is in treating the dry eye syndrome and associated diseases of the eye.

[6] = system: advanced and localized cancers; assay: Insulin followed by chemotherapeutic agents injected into cancer masses; type: in vivo; conditions: insulin followed by anticancer chemotherapeutic agents, direct injection
Source text: Our study of injecting Insulin followed by anticancer chemotherapeutic agents directly into cancer masses on hundreds of advanced and localized cancers supports these finding also. […] We treated multiple brain cancer patients by directly injecting insulin with mannitol followed by with specific anti tumor Chemo-therapeutic agents with dextrose and heparin directly infused into the internal carotid artery with positive results. Patients lived longer with good quality of life with less side effects to the chemotherapy agents.

dry eye syndrome [7] = assay: Therapeutic activity against dry eye syndrome; type: in vivo; conditions: incl. KCS, Sjogren's syndrome, MGD
Source text: Also, the terminology used herein is for the purpose of description and not of limitation.

[8] = local application incl. conjunctival sac, scalp, gums, mucosa, wounds
Source text: The present invention formulation contains only 0.05 IU per drop which can be increased in severe disease states.

pain = assay: Trigger point and joint injection of local anesthetic with insulin; type: in vivo; conditions: local anesthetic with insulin versus injectate without insulin
Source text: Trigger points or trigger sites are described as hyperirritable spots in skeletal muscle that are associated with palpable nodules in taut bands of muscle fibers whose compression may elicit local tenderness, referred pain, or local twitch response. There are many therapies to take away the tenderness and sore spots.

[9] = Local insulin on ulcers and tooth extraction wounds; type: in vivo; conditions: insulin soaked cotton swabs, 1-3 units in normal saline
Source text: (§1) The present inventors have used insulin for more than a decade to enhance the effectiveness of locally injected therapeutic agents especially cancers with chemotherapeutic agents with remarkable results. […] It stimulated the fibroblast, endothelial cell, angiogenesis and skin cell growth resulting accelerated wound healing.

indolent ulcers = assay: as above; type: in vivo; conditions: insulin spray, anywhere in the body incl. oral and nasal cavity
Source text: as §1

[10] = system: scleroderma and systemic lupus erythematosus; conditions: with insulin
Wurzburg cells = conditions: cited from earlier work
[11] = system: dry mouth and dry eyes conditions; assay: ADT (Sialor) orally and/or as eye drops in dry mouth and dry eyes; type: in vivo; conditions: 25 mg orally and/or ophthalmic drops; chemotherapy patients, menopausal women, chronic smokers
Experimental: Another drug available is an organo sulfur compound, anethole dithiolethione (ADT, 5-[p-methoxyphenyl]-3H-1,2-dithiol-3-thione, trade name Sialor™) with hardly any side effects. It stimulates the secretion of saliva in patients with autoimmune exocrinopathy (e.g. Sjogren's syndrome). Sialor alleviates the symptoms of xerostomia and xeroophthalmia. We have used Sialor, 25 mg orally and/or ophthalmic drops with successes in these conditions especially those on chemotherapy, menopausal women, and chronic smokers with dry mouth and dry eyes conditions. ADT increases the glutathione synthesis by activating gamma-glutamyl-cysteine synthetase. ADT reduced both polymorphonuclear neutrophils adhesion to ROS (reactive oxygen species—can be effective in post perfusion adhesion of white blood cells to ROS with resultant damage) and stimulated tyrosine phosphorylation.
Another drug available to treat KCS is a organo sulfur compound, anethole dithiolethione (ADT—trade name Sialor) with hardly any side effects. It stimulates the secretion of saliva, in patients with autoimmune exocrinopathy (Sjogren's syndrome). Sialor alleviates the symptoms of xerostomia and xeroophthalmia. […]

dry eye syndrome [12] = assay: MSM mixed with insulin as eye drops; type: in vivo; conditions: aqueous MSM mixed with insulin, chemotherapy, allergic eyes, contact lens wearers
Source text: Methylsulfonylmethane (MSM), is an organosulfur compound with the formula (CH3)2SO2, a metabolite of DMSO. It is also known by several other names: DMSO2, MSM, Methylsulfonylmethane, methyl sulfone, and dimethyl sulfone. It is marketed as dietary supplement and also used for osteoarthritis, allergic rhinitis, interstitial cystitis, and throat spray for snoring. Stanley W. Jacob, M.D., of the Oregon Health and Science University, reports using MSM to treat over 18,000 patients with a assortment of ailments (MSM the Definitive Guide: The Nutritional Breakthrough for Arthritis, Allergies and More. Freedom Press. 2003. ISBN 9781893910225. http://www.amazon.com/MSM-Definitive-Guide-Nutritional-Breakthrough/dp/1893910229). It is soluble in water, and a good solvent like DMSO. We have used aqueous solutions of MSM, filtered and sterilized and mixed with insulin and used as eye drops to treat dry eye syndrome during chemotherapy, allergic conditions of the eyes and contact lens wearers with good results.

## C[C@]12CC[C@H](O)CC1=CC[C@@H]1[C@@H]2CC[C@]2(C)C(=O)CC[C@@H]12 [DHEA, dehydroepiandrosterone]
Dry eye [1]
  subjective patient response: felt better
[2]
  androgenic activity of testosterone: 5%

## Regular (soluble): short-acting insulin
[3]
  Effective duration of action: 3 to 6 h
  Maximum duration: 6 to 8 h
  Peak action in hours: 2 to 3 h

## O=C(NC(Cc1cc(=O)[nH]c2ccccc12)C(=O)O)c1ccc(Cl)cc1 (stereo not drawn) [Rebamipide]
Dry eye [4]
  fluorescein corneal staining: decreased from baseline
  subjective parameters such as gritty/sandy sensation and burning/pain: decreased from baseline

## insulin
[5]
  increase of the cytotoxic effect of methotrexate: up to 10,000 fold
Musculoskeletal pain
  effectiveness of prolotherapy: more effective
[6]
  palpable tumors including enlarged lymph nodes: literally melted away
Dry eye syndrome [7]
  therapeutic activity against dry eye syndrome: high therapeutic activity
[8]
  blood sugar levels (hypoglycemic effects): did not change the blood sugar levels
pain
  relief of pain: rapid and effective relief of pain
[9]
  healing after teeth extraction: rapid healing with reduced pain
Indolent ulcers
  healing of indolent ulcers: augmented the healing

## O=P1(N(CCCl)CCCl)NCCCO1 (stereo not drawn) [cyclophosphamide, Cyclophosphamide]
[10]
  treatment outcome in scleroderma and systemic lupus erythematosus: very successfully

## Insulin lispro
[3]
  Onset of Action in hours: ¼-½

## Insulin glulisine
[3]
  Onset of Action in hours: ¼-½

## Insulin aspart
[3]
  Onset of Action in hours: ¼-½

## NPH (isophane): intermediate-acting insulin
[3]
  Effective duration of action: 10 to 16 h
  Maximum duration: 14 to 18 h
  Onset of Action: 2 to 4 h
  Peak action in hours: 6 to 10 h

## Insulin detemir
[3]
  Effective duration of action: 14 h
  Maximum duration: ~20 h
  Onset of Action: 3 to 4 h
  Peak action in hours: 6 to 8 h

## IGF-1: Insulin-like Growth factor (IGF-1), which has insulin like effects
Dry eye syndrome [7]
  therapeutic activity against dry eye syndrome: high therapeutic activity

## Insulin glargine
[3]
  Effective duration of action: 18 to 20 h
  Maximum duration: 20 to 24 h
  Onset of Action: 3 to 4 h
  Peak action in hours: 8 to 16 h

## COc1ccc(-c2cc(=S)ss2)cc1 [ADT, 5-[p-methoxyphenyl]-3H-1,2-dithiol-3-thione]
Wurzburg cells; ADT pretreatment of Wurzburg cells
  H2O2 induced lipid peroxidation: remarkably inhibited
Wurzburg cells; compared with untreated Wurzburg cells
  glutathione levels: rises glutathione levels significantly
[11]
  treatment outcome in dry mouth and dry eyes conditions: successes

## CS(C)(=O)=O [MSM, Methylsulfonylmethane]
Dry eye syndrome [12]
  treatment outcome in dry eye syndrome: good results
